Reference: publication PMC6661908

System: FOXA1 P358fs (purified)
Assay: BLI
Settings: buffer, pH and temperature not given

## KLK3 enhancer 60 bp
  binding signal (fold higher affinity than WT): 5
